Measurements published in PMC12822413, “TSHR‐Targeting Nucleic Acid Aptamer Treats Graves' Ophthalmopathy via Novel Allosteric Inhibition” (Advanced Science, 2025).

Target: T1, thyrotropin receptor (TSHR), wild type, on HEK293T cells stably expressing it (TSHR-293T) (human, UniProt P16473-1)
T1 construct: human thyrotropin receptor, cDNA from GeneCopoeia (NM_000369.4) cloned into pLVX-Puro; also called TSHR-293T cells; source: HEK293T, lentiviral transduction (pLVX-Puro), puromycin selected, on cells
Test: flow cytometry on cells; competitive binding assay of M22 and the DNA aptamer YC3 on TSHR-293T cells; each in excess against the other
Conditions: one partner purified

binding result: binds
B1: Human monoclonal autoantibody to the TSHR (M22) (antibody, V domains shown)
VH: QVQLVQSGAEVKKPGESLKISCRGSGYRFTSYWINWVRQLPGKGLEWMGRIDPTDSYTNYSPSFKGHVTVSADKSINTAYLQWSSLKASDTGMYYCARLEPGYSSTWSVNWGQGTLVTVS
VL: LTVLTQPPSVSGAPRQRVTISCSGNSSNIGNNAVNWYQQLPGKAPKLLIYYDDQLPSGVSDRFSGSRSGTSASLAIRGLQSEDEADYYCTSWDDSLDSQLFGGGTRLTVL
notes: also called human TSAb; source: bought: RSR (Cardiff, UK)
